Experiments:
[1] = target: T1, Tt-RpoE1;Tt-TolB (Thermoanaerobacter tengcongensis …, UniProt Q8RCT7;Q8RCT8 1-162;1-645, |); experiment: EMSA; 5 uM each; supershifted complex; 50 mM Tris-HCl pH 8.0, 10 mM MgAc2, 30 mM NaCl, 1 mM DTT, 5% glycerol, 30 ug/ml BSA, 0.5 mM EDTA, 1 ug poly(dI-dC), 20 fmol probe in 20 ul, 25 C, 20 min; conditions: protein: recombinant;recombinant; tags: His (pET28a);His (pET28a); label: 5'-32P top strand; fork: top 3' overhang 10 nt
T1 sequence 1: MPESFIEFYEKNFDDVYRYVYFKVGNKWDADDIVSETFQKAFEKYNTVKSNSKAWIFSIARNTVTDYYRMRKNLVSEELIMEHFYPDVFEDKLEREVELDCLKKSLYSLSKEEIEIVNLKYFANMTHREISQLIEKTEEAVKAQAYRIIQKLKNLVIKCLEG
T1 sequence 2: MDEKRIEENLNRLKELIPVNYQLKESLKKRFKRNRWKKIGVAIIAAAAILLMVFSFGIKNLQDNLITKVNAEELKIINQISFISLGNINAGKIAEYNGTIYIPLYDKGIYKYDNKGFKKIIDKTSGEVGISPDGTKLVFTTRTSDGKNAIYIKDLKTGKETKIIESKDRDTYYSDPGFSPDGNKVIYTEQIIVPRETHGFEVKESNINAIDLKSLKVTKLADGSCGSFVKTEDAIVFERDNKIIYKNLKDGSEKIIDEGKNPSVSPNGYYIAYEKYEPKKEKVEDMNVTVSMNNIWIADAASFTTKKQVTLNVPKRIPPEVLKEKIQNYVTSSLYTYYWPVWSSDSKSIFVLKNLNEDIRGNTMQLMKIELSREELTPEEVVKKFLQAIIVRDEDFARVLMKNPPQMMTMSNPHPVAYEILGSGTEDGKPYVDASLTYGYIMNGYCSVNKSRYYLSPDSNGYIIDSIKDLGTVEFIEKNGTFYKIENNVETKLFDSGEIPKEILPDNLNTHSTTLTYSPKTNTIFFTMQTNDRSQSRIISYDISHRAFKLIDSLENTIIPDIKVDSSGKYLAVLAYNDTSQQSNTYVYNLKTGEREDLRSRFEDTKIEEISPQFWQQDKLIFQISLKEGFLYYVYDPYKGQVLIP

[2] = target: T2, Tt-RpoE1 (Thermoanaerobacter tengcongensis MB4T, UniProt Q8RCT7 1-162); experiment: EMSA; 5 uM protein; 50 mM Tris-HCl pH 8.0, 10 mM MgAc2, 30 mM NaCl, 1 mM DTT, 5% glycerol, 30 ug/ml BSA, 0.5 mM EDTA, 1 ug poly(dI-dC), 20 fmol probe in 20 ul, 25 C, 20 min; conditions: protein: recombinant; tags: His (pET28a); label: 5'-32P top strand; fork: top 3' overhang 10 nt
T2 sequence: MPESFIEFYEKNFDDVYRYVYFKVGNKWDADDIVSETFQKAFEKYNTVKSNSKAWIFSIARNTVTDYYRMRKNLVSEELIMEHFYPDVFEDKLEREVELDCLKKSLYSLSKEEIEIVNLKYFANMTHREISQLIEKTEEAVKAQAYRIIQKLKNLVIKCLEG

[3] = target: T3, Tt-TolB (Thermoanaerobacter tengcongensis MB4T, UniProt Q8RCT8 1-645); experiment: EMSA; 5 uM, alone; 50 mM Tris-HCl pH 8.0, 10 mM MgAc2, 30 mM NaCl, 1 mM DTT, 5% glycerol, 30 ug/ml BSA, 0.5 mM EDTA, 1 ug poly(dI-dC), 20 fmol probe in 20 ul, 25 C, 20 min; conditions: protein: recombinant; tags: His (pET28a); label: 5'-32P top strand; fork: top 3' overhang 10 nt
T3 sequence: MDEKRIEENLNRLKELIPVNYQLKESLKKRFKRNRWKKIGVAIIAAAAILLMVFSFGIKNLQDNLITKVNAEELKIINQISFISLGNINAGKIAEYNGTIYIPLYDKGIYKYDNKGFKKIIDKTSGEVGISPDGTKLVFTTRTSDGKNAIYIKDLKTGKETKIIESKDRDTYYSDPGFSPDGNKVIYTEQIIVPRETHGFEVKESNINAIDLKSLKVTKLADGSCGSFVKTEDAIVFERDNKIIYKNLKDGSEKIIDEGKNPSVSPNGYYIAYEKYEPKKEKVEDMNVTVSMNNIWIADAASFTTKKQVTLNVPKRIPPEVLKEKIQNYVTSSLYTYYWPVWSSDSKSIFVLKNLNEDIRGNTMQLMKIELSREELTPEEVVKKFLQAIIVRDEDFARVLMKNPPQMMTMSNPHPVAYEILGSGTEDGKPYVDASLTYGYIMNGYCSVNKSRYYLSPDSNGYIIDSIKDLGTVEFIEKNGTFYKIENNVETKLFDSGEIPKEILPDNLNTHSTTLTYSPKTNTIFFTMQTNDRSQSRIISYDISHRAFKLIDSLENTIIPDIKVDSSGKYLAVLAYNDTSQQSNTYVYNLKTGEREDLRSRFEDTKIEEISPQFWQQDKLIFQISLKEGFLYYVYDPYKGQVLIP

[4] = target: T4, Tt-TolB-C (Thermoanaerobacter tengcongensis MB4T, UniProt Q8RCT8 62-645); experiment: as above; conditions: protein: recombinant; tags: His (pET28a); label: 5'-32P top strand; fork: top 3' overhang 10 nt
T4 sequence: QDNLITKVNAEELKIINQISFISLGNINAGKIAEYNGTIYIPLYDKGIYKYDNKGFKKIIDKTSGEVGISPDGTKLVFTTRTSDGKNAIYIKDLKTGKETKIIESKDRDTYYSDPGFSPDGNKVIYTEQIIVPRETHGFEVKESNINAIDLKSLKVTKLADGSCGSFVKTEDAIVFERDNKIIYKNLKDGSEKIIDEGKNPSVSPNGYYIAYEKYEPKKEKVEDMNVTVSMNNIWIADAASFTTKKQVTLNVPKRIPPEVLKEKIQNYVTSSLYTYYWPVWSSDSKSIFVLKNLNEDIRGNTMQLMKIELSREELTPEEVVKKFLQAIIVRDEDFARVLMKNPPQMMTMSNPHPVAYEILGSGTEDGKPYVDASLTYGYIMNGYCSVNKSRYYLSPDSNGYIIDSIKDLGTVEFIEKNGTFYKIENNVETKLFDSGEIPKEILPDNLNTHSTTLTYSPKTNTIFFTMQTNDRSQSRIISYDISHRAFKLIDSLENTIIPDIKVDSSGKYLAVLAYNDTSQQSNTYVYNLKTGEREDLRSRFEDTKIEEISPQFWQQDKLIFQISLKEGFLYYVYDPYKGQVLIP

[5] = target: T2, Tt-RpoE1; experiment: EMSA; 5 uM protein; strongest; 50 mM Tris-HCl pH 8.0, 10 mM MgAc2, 30 mM NaCl, 1 mM DTT, 5% glycerol, 30 ug/ml BSA, 0.5 mM EDTA, 1 ug poly(dI-dC), 20 fmol probe in 20 ul, 25 C, 20 min; conditions: protein: recombinant; tags: His (pET28a); label: 5'-32P top strand; fork: top 3' overhang 12 nt
[6] = target: T2, Tt-RpoE1; experiment: EMSA; 5 uM protein; abolished; 50 mM Tris-HCl pH 8.0, 10 mM MgAc2, 30 mM NaCl, 1 mM DTT, 5% glycerol, 30 ug/ml BSA, 0.5 mM EDTA, 1 ug poly(dI-dC), 20 fmol probe in 20 ul, 25 C, 20 min; conditions: protein: recombinant; tags: His (pET28a); label: 5'-32P top strand; fork: top 3' overhang 10 nt
[7] = target: T2, Tt-RpoE1; experiment: EMSA; 5 uM protein; little effect; 50 mM Tris-HCl pH 8.0, 10 mM MgAc2, 30 mM NaCl, 1 mM DTT, 5% glycerol, 30 ug/ml BSA, 0.5 mM EDTA, 1 ug poly(dI-dC), 20 fmol probe in 20 ul, 25 C, 20 min; conditions: protein: recombinant, tags: His (pET28a), label: 5'-32P top strand

B1: T+1/B-10 (dsDNA)
DNA 1: GGTATTGTTACCTTTTGTGTAGATTTTCGTCTATAAAGGTG
DNA 2: GACGAAAATCTACACAAAAGGTAACAATACC
Does B1 bind [1]?
Result: binds

Does B1 bind [2]?
Result: binds

Does B1 bind [3]?
Result: no binding

Does B1 bind [4]?
Result: no binding

B2: T+1/B-12 (dsDNA)
DNA 1: GGTATTGTTACCTTTTGTGTAGATTTTCGTCTATAAAGGTG
DNA 2: CGAAAATCTACACAAAAGGTAACAATACC
Does B2 bind [5]?
Result: binds

B3: D-5-6c (-30C to T) (dsDNA)
DNA 1: TGTTATCTTTTGTGTAGATTTTCGTCTATAAAGGTG
DNA 2: GACGAAAATCTACACAAAAGATAACA
Does B3 bind [6]?
Result: no binding

B4: D-5-B1C (-13C to T) (dsDNA)
DNA 1: TGTTACCTTTTGTGTAGATTTTTGTCTATAAAGGTG
DNA 2: CAAAAATCTACACAAAAGGTAACA
Does B4 bind ([7]; fork: top 3' overhang 12 nt)?
Result: binds

B5: D-5-7c (-29C to T) (dsDNA)
DNA 1: TGTTACTTTTTGTGTAGATTTTCGTCTATAAAGGTG
DNA 2: GACGAAAATCTACACAAAAAGTAACA
Does B5 bind ([7]; fork: top 3' overhang 10 nt)?
Result: binds

B6: D-5-BM3 (-9TA-8 to CC) (dsDNA)
DNA 1: TGTTACCTTTTGTGTAGATTTTCGTCCCTAAAGGTG
DNA 2: CGAAAATCTACACAAAAGGTAACA
Does B6 bind ([7]; fork: top 3' overhang 12 nt)?
Result: binds

B7: D-5-b6a/-12 (-8A to G) (dsDNA)
DNA 1: TGTTACCTTTTGTGTAGATTTTCGTCTGTAAAGGTG
DNA 2: CGAAAATCTACACAAAAGGTAACA
Does B7 bind ([7]; fork: top 3' overhang 12 nt)?
Result: binds
